T1: JrPHL8 (walnut (Juglans)?, UniProt A0A2I4DJV4 1-356)
T1 sequence: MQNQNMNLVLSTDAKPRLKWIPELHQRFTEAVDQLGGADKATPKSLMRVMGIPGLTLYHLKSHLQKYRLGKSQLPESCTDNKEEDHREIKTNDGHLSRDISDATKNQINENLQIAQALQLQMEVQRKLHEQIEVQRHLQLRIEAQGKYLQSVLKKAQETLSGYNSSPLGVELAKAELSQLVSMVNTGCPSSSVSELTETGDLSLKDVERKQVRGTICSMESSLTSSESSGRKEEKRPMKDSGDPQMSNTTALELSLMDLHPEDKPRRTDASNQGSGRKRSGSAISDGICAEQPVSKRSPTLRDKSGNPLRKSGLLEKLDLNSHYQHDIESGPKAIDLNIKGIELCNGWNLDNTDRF

B1: proJrWRKY4-MBS (dsDNA)
DNA 1: TTCACTATTACTGATATTCTCAACAGAAAAATGTCTAAGAGACAAT
DNA 2: ATTGTCTCTTAGACATTTTTCTGTTGAGAATATCAGTAATAGTGAA
B2: proJrSTH2L-Wbox (dsDNA)
DNA 1: AACCTAAACCCTTTGTGAAGTTGACCAGATCCTCAACCCGGGATGG
DNA 2: CCATCCCGGGTTGAGGATCTGGTCAACTTCACAAAGGGTTTAGGTT

Experiments:
JrPHL8 = molecular target: T1, JrPHL8; assay: EMSA; LightShift Chemiluminescent EMSA Kit (Beyotime); cold probe 100-fold; buffer, salt, pH and temperature not stated; details: protein: recombinant; tags: His (pET32a fusion); chain copies: 2; label: biotin; blunt
JrWRKY4 = JrWRKY4 (walnut (Juglans)?, UniProt A0A2I4E3K4 1-517); assay: as above; details: protein: recombinant; tags: pET32a fusion (Trx-His; article states His-tagged); label: biotin; blunt
JrWRKY4, sequence (A0A2I4E3K4 entry or part of it): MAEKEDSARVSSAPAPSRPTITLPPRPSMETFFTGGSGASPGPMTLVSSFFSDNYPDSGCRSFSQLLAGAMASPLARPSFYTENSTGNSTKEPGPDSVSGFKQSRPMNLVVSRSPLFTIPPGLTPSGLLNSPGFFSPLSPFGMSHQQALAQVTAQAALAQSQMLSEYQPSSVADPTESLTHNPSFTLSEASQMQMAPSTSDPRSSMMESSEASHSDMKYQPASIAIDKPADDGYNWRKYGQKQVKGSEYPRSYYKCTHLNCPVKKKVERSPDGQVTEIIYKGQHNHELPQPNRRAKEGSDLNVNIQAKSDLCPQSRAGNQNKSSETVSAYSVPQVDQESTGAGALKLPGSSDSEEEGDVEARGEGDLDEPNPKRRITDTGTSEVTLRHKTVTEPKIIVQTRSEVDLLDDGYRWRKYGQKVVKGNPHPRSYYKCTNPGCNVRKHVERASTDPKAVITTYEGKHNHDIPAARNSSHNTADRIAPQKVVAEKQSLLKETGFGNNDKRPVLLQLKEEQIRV

Row | Binder | binding result (JrPHL8) | binding result (JrWRKY4)
1 | B1 | binds | 
2 | B2 |  | binds
